According to IntAct's records for PubMed 23622245:

B1: Proteasome inhibitor PI31 subunit (Drosophila melanogaster (Fruit fly)), Q9V637 (parent)
chain: MESGSTAKTGDFFYGWDLLYKTVKADVSKKSDLLIALVHFLLTKHYNFRCVGVGDDKTLPEEEGSELLPDSWNDDDTKYSLRYVHDKMLYLLLGHITEGSLLINLLDINTKKVSNICVEPETLVPEVKGGITTIMPSASEIVERYRRELLDPVFTGNSREVTTQTTNSPRPIGSDPDPLRIGEPRRGGSFIPSAFEPRPFGFPDVGRGDLDPLGRGGHGNLFSFPSRPNMGPGPVPRFDPFNPLNPNRPGQGGINPDHMRPPDWNPDYYM
partner: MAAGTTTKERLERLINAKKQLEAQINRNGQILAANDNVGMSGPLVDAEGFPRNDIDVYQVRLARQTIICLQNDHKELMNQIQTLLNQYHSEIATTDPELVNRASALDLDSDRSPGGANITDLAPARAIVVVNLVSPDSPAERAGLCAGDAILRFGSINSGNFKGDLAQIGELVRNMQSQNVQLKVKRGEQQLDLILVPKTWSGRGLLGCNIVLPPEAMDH
B2: Proteasome inhibitor PI31 subunit (Drosophila melanogaster (Fruit fly)), Q9V637 (parent)
chain: B1 chain
partner: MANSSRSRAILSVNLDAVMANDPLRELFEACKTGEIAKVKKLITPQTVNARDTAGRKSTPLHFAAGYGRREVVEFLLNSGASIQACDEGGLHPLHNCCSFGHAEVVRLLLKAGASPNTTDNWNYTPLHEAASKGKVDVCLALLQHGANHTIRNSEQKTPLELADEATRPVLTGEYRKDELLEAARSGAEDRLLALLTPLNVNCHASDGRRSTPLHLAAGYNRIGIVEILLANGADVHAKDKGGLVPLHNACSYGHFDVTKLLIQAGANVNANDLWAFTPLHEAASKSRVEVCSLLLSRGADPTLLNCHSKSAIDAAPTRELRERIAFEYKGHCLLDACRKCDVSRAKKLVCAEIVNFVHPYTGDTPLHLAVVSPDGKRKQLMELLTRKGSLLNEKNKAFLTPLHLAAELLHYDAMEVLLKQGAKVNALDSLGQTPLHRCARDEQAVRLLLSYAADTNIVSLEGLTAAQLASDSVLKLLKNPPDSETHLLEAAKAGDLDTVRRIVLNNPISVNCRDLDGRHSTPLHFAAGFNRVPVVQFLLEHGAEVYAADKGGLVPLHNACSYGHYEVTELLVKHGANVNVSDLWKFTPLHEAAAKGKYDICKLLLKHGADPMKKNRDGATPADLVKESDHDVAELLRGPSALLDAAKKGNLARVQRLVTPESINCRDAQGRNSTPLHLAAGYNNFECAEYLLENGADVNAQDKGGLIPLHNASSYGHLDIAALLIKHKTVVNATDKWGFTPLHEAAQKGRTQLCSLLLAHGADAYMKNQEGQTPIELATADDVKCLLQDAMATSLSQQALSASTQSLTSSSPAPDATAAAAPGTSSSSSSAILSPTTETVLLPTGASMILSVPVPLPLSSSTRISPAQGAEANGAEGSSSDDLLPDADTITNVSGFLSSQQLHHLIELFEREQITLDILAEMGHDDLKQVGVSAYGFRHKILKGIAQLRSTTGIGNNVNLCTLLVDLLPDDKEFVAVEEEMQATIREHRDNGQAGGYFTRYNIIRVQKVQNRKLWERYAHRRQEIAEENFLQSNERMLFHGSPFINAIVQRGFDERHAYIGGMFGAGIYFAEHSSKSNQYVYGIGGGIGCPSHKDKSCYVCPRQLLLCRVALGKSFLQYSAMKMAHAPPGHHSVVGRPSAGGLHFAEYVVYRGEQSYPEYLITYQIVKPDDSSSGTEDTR
B3: 26S proteasome non-ATPase regulatory subunit 9 (Drosophila melanogaster (Fruit fly)), Q9VFS8 (parent)
chain: B1 partner
partner: B1 chain
B4: Proteasome inhibitor PI31 subunit (Drosophila melanogaster (Fruit fly)), Q9V637 (parent)
chain: B1 chain
partner: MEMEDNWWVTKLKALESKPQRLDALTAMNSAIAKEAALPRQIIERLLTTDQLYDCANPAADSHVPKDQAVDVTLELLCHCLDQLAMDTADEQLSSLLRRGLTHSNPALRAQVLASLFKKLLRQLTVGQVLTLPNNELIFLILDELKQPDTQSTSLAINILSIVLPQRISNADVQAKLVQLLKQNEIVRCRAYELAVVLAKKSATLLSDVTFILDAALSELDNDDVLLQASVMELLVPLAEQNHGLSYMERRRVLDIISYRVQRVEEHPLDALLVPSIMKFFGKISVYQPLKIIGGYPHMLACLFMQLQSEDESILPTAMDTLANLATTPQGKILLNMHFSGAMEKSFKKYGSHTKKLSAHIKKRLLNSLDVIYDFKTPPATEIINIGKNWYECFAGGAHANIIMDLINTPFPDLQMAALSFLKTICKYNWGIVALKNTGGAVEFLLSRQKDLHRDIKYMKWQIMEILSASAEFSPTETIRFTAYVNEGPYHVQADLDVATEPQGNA
B5: 26S proteasome non-ATPase regulatory subunit 5 (Drosophila melanogaster (Fruit fly)), Q9VYG1 (parent)
chain: B4 partner
partner: B1 chain

Variants of: B1
Conditions: with psmd9_drome psmd9, Q9VFS8

Q: How did the “effect of a mutation on the interaction” value turn out when MESGSTAKTGDFFYGWDLLYKTVKADVSKKSDLLIALVHFLLTKHYNFRCVGVGDDKTLPEEEGSELLPDSWNDDDTKYSLRYVHDKMLYLLLGHITEGSLLINLLDINTKKVSNICVEPETLVPEVKGGITTIMPSASEIVERYRRELLDPVFTGNSREVTTQTTNSPRPIGSDPDPLRIGEPRRGGSFIPSAFEPRPFGFPDVGRGDLDPLGRGGHGNLFSFPSRPNMGPGPVPRFDPANPLNPNRPGQGGINPDHMRPPDWNPDYYM [F241A] was run?
A: disrupting interaction strength

Q: MESGSTAKTGDFFYGWDLLYKTVKADVSKKSDLLIALVHFLLTKHYNFRCVGVGDDKTLPEEEGSELLPDSWNDDDTKYSLRYVHDKMLYLLLGHITEGSLLINLLDINTKKVSNICVEPETLVPEVKGGITTIMPSASEIVERYRRELLDPVFTGNSREVTTQTTNSPRPIGSDPDPLRIGEPRRGGSFIPSAFEPRPFGFPDVGRGDADPLGRGGHGNLFSFPSRPNMGPGPVPRFDPFNPLNPNRPGQGGINPDHMRPPDWNPDYYM [L210A] was tested. Which “effect of a mutation on the interaction” value did it give?
A: disrupting interaction strength

Variants of: B2
Conditions: with tnks_drome Tnks

Q: Which “effect of a mutation on the interaction” value does the source give for MESGSTAKTGDFFYGWDLLYKTVKADVSKKSDLLIALVHFLLTKHYNFACVGVADDKTLPEEEGSELLPDSWNDDDTKYSLRYVHDKMLYLLLGHITEGSLLINLLDINTKKVSNICVEPETLVPEVKGGITTIMPSASEIVERYRRELLDPVFTGNSREVTTQTTNSPRPIGSDPDPLRIGEPRRGGSFIPSAFEPRPFGFPDVGRGDLDPLGRGGHGNLFSFPSRPNMGPGPVPRFDPFNPLNPNRPGQGGINPDHMRPPDWNPDYYM [R49A;G54A] here?
A: disrupting interaction strength

Q: Which “effect of a mutation on the interaction” value does the source give for MESGSTAKTGDFFYGWDLLYKTVKADVSKKSDLLIALVHFLLTKHYNFRCVGVGDDKTLPEEEGSELLPDSWNDDDTKYSLRYVHDKMLYLLLGHITEGSLLINLLDINTKKVSNICVEPETLVPEVKGGITTIMPSASEIVERYRRELLDPVFTGNSREVTTQTTNSPRPIGSDPDPLRIGEPRRGGSFIPSAFEPRPFGFPDVGRGDLDPLGRGGHGNLFSFPSRPNMGPGPVPRFDPANPLNPNRPGQGGINPDHMRPPDWNPDYYM [F241A] here?
A: disrupting interaction strength

Q: With MESGSTAKTGDFFYGWDLLYKTVKADVSKKSDLLIALVHFLLTKHYNFRCVGVGDDKTLPEEEGSELLPDSWNDDDTKYSLRYVHDKMLYLLLGHITEGSLLINLLDINTKKVSNICVEPETLVPEVKGGITTIMPSASEIVERYRRELLDPVFTGNSREVTTQTTNSPRPIGSDPDPLRIGEPRRGGSFIPSAFEPRPFGFPDVGRGDADPLGRGGHGNLFSFPSRPNMGPGPVPRFDPFNPLNPNRPGQGGINPDHMRPPDWNPDYYM [L210A] as the variant, how does the “effect of a mutation on the interaction” value read?
A: disrupting interaction strength

Variants of: B3
Conditions: with psmf1_drome PI31, Q9V637

Q: For MAAGTTTKARLERLINAKKQLEAQINRNGQILAANDNVGMSGPLVDAEGFPRNDIDVYQVRLARQTIICLQNDHKELMNQIQTLLNQYHSEIATTDPELVNRASALDLDSDRSPGGANITDLAPARAIVVVNLVSPDSPAERAGLCAGDAILRFGSINSGNFKGDLAQIGELVRNMQSQNVQLKVKRGEQQLDLILVPKTWSGRGLLGCNIVLPPEAMDH [E9A], which “effect of a mutation on the interaction” value is on record?
A: disrupting interaction strength

Q: MAAGTTTKERLERLINAKKQLEAQINRNGQILAANDNVGMSGPLVDAEGFPRNDIDVYQVRLARQTIICLQNDHKELMNQIQTLLNQYHSEIATTDPELVNRASALDLDSDRSPGGANITDLAPARAIVVVNLVSPDSPAERAGLCAGDAILRFGSINSGNFKGDLAQIGELVRNMQSQNVQLKVKAGEQQLDLILVPKTWSGRGLLGCNIVLPPEAMDH [R187A] was tested. Which “effect of a mutation on the interaction” value did it give?
A: disrupting interaction strength

Variants of: B4
Conditions: with psmd5_drome psmd5, Q9VYG1

Q: For MESGSTAKTGDFFYGWDLLYKTVKADVSKKSDLLIALVHFLLTKHYNFRCVGVGDDKTLPEEEGSELLPDSWNDDDTKYSLRYVHDKMLYLLLGHITEGSLLINLLDINTKKVSNICVEPETLVPEVKGGITTIMPSASEIVERYRRELLDPVFTGNSREVTTQTTNSPRPIGSDPDPLRIGEPRRGGSFIPSAFEPRPFGFPDVGRGDLDPLGRGGHGNLFSFPSRPNMGPGPVPRFDPANPLNPNRPGQGGINPDHMRPPDWNPDYYM [F241A], which “effect of a mutation on the interaction” value is on record?
A: disrupting interaction strength

Q: How did the “effect of a mutation on the interaction” value turn out when MESGSTAKTGDFFYGWDLLYKTVKADVSKKSDLLIALVHFLLTKHYNFRCVGVGDDKTLPEEEGSELLPDSWNDDDTKYSLRYVHDKMLYLLLGHITEGSLLINLLDINTKKVSNICVEPETLVPEVKGGITTIMPSASEIVERYRRELLDPVFTGNSREVTTQTTNSPRPIGSDPDPLRIGEPRRGGSFIPSAFEPRPFGFPDVGRGDADPLGRGGHGNLFSFPSRPNMGPGPVPRFDPFNPLNPNRPGQGGINPDHMRPPDWNPDYYM [L210A] was run?
A: disrupting interaction strength

Variants of: B5
Conditions: with psmf1_drome PI31, Q9V637

Q: MEMEDNWWVTKLKALESKPQRLDALTAMNSAIAKEAALPRQIIERLLTTDQLYDCANPAADSHVPKDQAVDVTLELLCHCLDQLAMDTADEQLSSLLRRGLTHSNPALRAQVLASLFKKLLRQLTVGQVLTLPNNELIFLILDELKQPDTQSTSLAINILSIVLPQRISNADVQAKLVQLLKQNEIVRCRAYELAVVLAKKSATLLSDVTFILDAALSELDNDDVLLQASVMELLVPLAEQNHGLSYMERRRVLDIISYRVQAVEEHPLDALLVPSIMKFFGKISVYQPLKIIGGYPHMLACLFMQLQSEDESILPTAMDTLANLATTPQGKILLNMHFSGAMEKSFKKYGSHTKKLSAHIKKRLLNSLDVIYDFKTPPATEIINIGKNWYECFAGGAHANIIMDLINTPFPDLQMAALSFLKTICKYNWGIVALKNTGGAVEFLLSRQKDLHRDIKYMKWQIMEILSASAEFSPTETIRFTAYVNEGPYHVQADLDVATEPQGNA [R263A] was tested. Which “effect of a mutation on the interaction” value did it give?
A: disrupting interaction strength

Q: How did the “effect of a mutation on the interaction” value turn out when MEMEDNWWVTKLKALESKPQRLDALTAMNSAIAKEAALPRQIIARLLTTDQLYDCANPAADSHVPKDQAVDVTLELLCHCLDQLAMDTADEQLSSLLRRGLTHSNPALRAQVLASLFKKLLRQLTVGQVLTLPNNELIFLILDELKQPDTQSTSLAINILSIVLPQRISNADVQAKLVQLLKQNEIVRCRAYELAVVLAKKSATLLSDVTFILDAALSELDNDDVLLQASVMELLVPLAEQNHGLSYMERRRVLDIISYRVQRVEEHPLDALLVPSIMKFFGKISVYQPLKIIGGYPHMLACLFMQLQSEDESILPTAMDTLANLATTPQGKILLNMHFSGAMEKSFKKYGSHTKKLSAHIKKRLLNSLDVIYDFKTPPATEIINIGKNWYECFAGGAHANIIMDLINTPFPDLQMAALSFLKTICKYNWGIVALKNTGGAVEFLLSRQKDLHRDIKYMKWQIMEILSASAEFSPTETIRFTAYVNEGPYHVQADLDVATEPQGNA [E44A] was run?
A: disrupting interaction strength
